Data from patent US20040002442A1 (Bayer, published 2004).
Ends that are not written are not given here. * marks the point of attachment. Palmitoyl = CCCCCCCCCCCCCCCC(=O)*

Biological target: T1, GLP-1 receptor present in the plasma membranes isolated from RINm5F cells (UniProt P32301 22-463, limits assumed)
T1 construct: whole, on cells
T1 sequence (looked up): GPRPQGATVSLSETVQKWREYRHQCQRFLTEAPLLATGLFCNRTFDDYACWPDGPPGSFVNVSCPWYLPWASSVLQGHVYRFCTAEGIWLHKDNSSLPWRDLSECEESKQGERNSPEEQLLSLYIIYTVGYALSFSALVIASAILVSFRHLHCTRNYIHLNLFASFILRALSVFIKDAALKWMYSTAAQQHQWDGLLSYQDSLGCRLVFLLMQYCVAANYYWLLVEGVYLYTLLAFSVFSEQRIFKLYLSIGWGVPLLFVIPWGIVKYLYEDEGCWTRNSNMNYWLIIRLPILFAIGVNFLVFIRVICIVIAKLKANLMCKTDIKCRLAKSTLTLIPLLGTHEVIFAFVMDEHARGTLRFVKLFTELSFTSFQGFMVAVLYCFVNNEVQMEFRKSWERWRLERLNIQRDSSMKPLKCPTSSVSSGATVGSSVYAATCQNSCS
Test: 125I-GLP-1 displacement, RINm5F plasma membranes
Experimental: Competitive binding of some polypeptides of the invention to RINm5F cell plasma membranes was measured as follows. Ninety-six-well GF/C filtration plates (Millipore, Bedford, Ma.) were blocked with 0.3% PEI for at least one hour and washed twice with binding buffer consisting of 20 mM Tris, 2 mM EDTA, pH 7.5, 1 mg/ml BSA, and 1 mg/ml bacitracin. […] The plates were dried, scintillant was added to each well, and cpm per well determined using a Wallac Microbeta counter.

Binder	IC50
HSQGTFTSDYARYLDARRAREFIKWLVRGRGK(Palmitoyl) [G182]	12.6 nM
HSQGTFTSDYSKYLDSRRAQDFVQWLVKGR-NH2 [G1]	6 nM
HSQGTFTSDYAKYLDARRAKEFIAWLVKGRG [G51]	8.2 nM
HSQGTFTSDYAKYLDARRAKEFIAWLVKGRC [G77]	8.9 nM
HSQGTFTSDYARYLDARRAREFIAWLVKGRG [G84]	1.4 nM
HSQGTFTSDYAKYLDAKKAKEFIAWLVKGRG [G58]	6.9 nM
HSQGTFTSDYAKYLDARRAKEFIAWLVCGRG [G74]	4.4 nM
HSQGTFTSDYAKYLDARRAKEFIAWLVKGCG [G76]	10.2 nM
HSQGTFTSDYARYLDAKKAKEFIAWLVKGRG [G59]	2.1 nM
HSQGTFTSDYAKYLDARRAKEFIAWLVKGRK(Palmitoyl) [G88]	109 nM
HSQGTFTSDYARYLDARRAK(Palmitoyl)EFIKWLVRGRG (not fully specified; printed as HSQGTFTSDYARYLDARRAK(FA)EFIKWLVRGRG) [G183]	159 nM
HSQGTFTSDYARYLDARRAREFIKWLVRGRC(PEG43kD) [G4185]	248 nM
HSQGTFTSDYARYLDARRAREFIKWLVRGRC [G185]	4.5 nM
HSQGTFTSDYAKYLDARRAKEFIAWLVKCRG [G75]	7.7 nM
HSQGTFTSDYARYLDARRAREFIKWLVRGRC(PEG22kD) [G2185]	56.1 nM
HSQGTFTSDYAKYLDAAKAKEFIAWLVKGRG [G60]	13.8 nM
HSQGTFTSDYARYLDARRAREFIK(Palmitoyl)WLVRGRG [G90]	25.4 nM
HSQGTFTSDYAKYLDARRACEFIAWLVKGRG [G71]	5.8 nM
HSQGTFTSDYARYLDAAKAKEFIAWLVKGRG [G61]	10.6 nM
HSQGTFTSDYARYLDARRAKEFIAWLVRGRG [G82]	8.1 nM
HSQGTFTSDYARYLDARRAREFIKWLVRGRG [G83]	3.2 nM
HSQGTFTSDYSKYLEGQAAKEFIAWLVKGR-NH2 [G5]	0.5 nM

Biological target: T2, glucagon receptor present in the plasma membranes isolated from rat liver (rat, UniProt P30082 27-485)
T2 sequence (P30082 27-485): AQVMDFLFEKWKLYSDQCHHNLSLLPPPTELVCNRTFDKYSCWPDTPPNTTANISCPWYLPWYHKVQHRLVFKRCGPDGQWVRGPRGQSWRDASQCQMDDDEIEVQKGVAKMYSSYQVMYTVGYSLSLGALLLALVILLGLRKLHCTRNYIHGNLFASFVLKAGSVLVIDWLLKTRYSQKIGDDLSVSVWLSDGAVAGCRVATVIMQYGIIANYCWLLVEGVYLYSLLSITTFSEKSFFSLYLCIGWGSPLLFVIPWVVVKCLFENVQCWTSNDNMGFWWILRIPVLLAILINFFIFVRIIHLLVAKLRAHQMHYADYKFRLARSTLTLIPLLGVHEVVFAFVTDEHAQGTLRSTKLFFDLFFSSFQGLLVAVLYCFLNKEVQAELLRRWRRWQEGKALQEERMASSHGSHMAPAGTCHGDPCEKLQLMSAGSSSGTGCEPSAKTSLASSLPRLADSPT
Test: cell-based or functional assay

Binder	% Inhib glucagon stimulated cAMP increase (10 uM peptide, rat hepatocytes)
HSQGTFTSDYAKYLDARRAKEFIAWLVKGRG [G51]	35.2%
HSQGTFTSDYAKYLDARRAKEFIAWLVKGRC [G77]	18.6%
HSQGTFTSDYARYLDARRAREFIAWLVKGRG [G84]	25.2%
HSQGTFTSDYAKYLDAKKAKEFIAWLVKGRG [G58]	32.6%
HSQGTFTSDYAKYLDARRAKEFIAWLVCGRG [G74]	23.7%
HSQGTFTSDYAKYLDARRAKEFIAWLVKGCG [G76]	23%
HSQGTFTSDYARYLDAKKAKEFIAWLVKGRG [G59]	41.1%
HSQGTFTSDYARYLDARRAREFIKWLVRGRC [G185]	32%
HSQGTFTSDYAKYLDARRAKEFIAWLVKCRG [G75]	17.1%
HSQGTFTSDYAKYLDAAKAKEFIAWLVKGRG [G60]	21.8%
HSQGTFTSDYAKYLDARRACEFIAWLVKGRG [G71]	11.3%
HSQGTFTSDYARYLDAAKAKEFIAWLVKGRG [G61]	45.2%
HSQGTFTSDYARYLDARRAKEFIAWLVRGRG [G82]	30.2%
HSQGTFTSDYARYLDARRAREFIKWLVRGRG [G83]	24.7%

Biological target: T1, GLP-1 receptor present in the plasma …
Test: cell-based or functional assay

Binder	% GLP1 max, cAMP SPA in RINm5F cells	Relative Potency (%), cAMP SPA in RINm5F cells
HSQGTFTSDYARYLDARRAREFIKWLVRGRGK(Palmitoyl) [G182]	104%	1.4%
HSQGTFTSDYSKYLDSRRAQDFVQWLVKGR-NH2 [G1]	112%	6.9%
HSQGTFTSDYAKYLDARRAKEFIAWLVKGRG [G51]	91.2%	58.1%
HSQGTFTSDYAKYLDARRAKEFIAWLVKGRC [G77]	92.1%	9.5%
HSQGTFTSDYARYLDARRAREFIAWLVKGRG [G84]	114%	61.8%
HSQGTFTSDYAKYLDAKKAKEFIAWLVKGRG [G58]	99%	76.1%
HSQGTFTSDYAKYLDARRAKEFIAWLVCGRG [G74]	88.7%	8.4%
HSQGTFTSDYAKYLDARRAKEFIAWLVKGCG [G76]	85%	7.7%
HSQGTFTSDYARYLDAKKAKEFIAWLVKGRG [G59]	102%	22.7%
HSQGTFTSDYAKYLDARRAKEFIAWLVKGRK(Palmitoyl) [G88]	118%	2.3%
HSQGTFTSDYARYLDARRAK(Palmitoyl)EFIKWLVRGRG (not fully specified; printed as HSQGTFTSDYARYLDARRAK(FA)EFIKWLVRGRG) [G183]	90.5%	0.6%
HSQGTFTSDYARYLDARRAREFIKWLVRGRC(PEG43kD) [G4185]	98.3%	0.7%
HSQGTFTSDYARYLDARRAREFIKWLVRGRC [G185]	104%	13%
HSQGTFTSDYAKYLDARRAKEFIAWLVKCRG [G75]	86.1%	6.6%
HSQGTFTSDYARYLDARRAREFIKWLVRGRC(PEG22kD) [G2185]	113%	6.2%
HSQGTFTSDYAKYLDAAKAKEFIAWLVKGRG [G60]	95.7%	22.3%
HSQGTFTSDYARYLDARRAREFIK(Palmitoyl)WLVRGRG [G90]	83.5%	0.8%
HSQGTFTSDYAKYLDARRACEFIAWLVKGRG [G71]	93.3%	4.3%
HSQGTFTSDYAKYLDARRAKEFIAWLVKGRC(PEG22kD) [G277]	93.7%	1.8%
HSQGTFTSDYARYLDAAKAKEFIAWLVKGRG [G61]	96%	12.1%
HSQGTFTSDYARYLDARRAKEFIAWLVRGRG [G82]	97.1%	29.9%
HSQGTFTSDYARYLDARRAREFIKWLVRGRG [G83]	89.4%	29.9%
HSQGTFTSDYSKYLEGQAAKEFIAWLVKGR-NH2 [G5]	109%	69.9%

Biological target: T2, glucagon receptor present in the plasma …
Test: 125I-glucagon displacement, rat liver plasma membranes
Experimental: Competitive binding of some polypeptides of the invention to rat liver plasma membranes was measured as follows. Ninety-six-well GF/C filtration plates (Millipore, Bedford, Ma.) were blocked with 0.1% PEI for at least one hour and washed twice with binding buffer consisting of 20 mM Tris, 2 mM EDTA, pH 7.5, 1 mg/ml BSA, and 1 mg/ml bacitracin. […] The plates were dried, scintillant was added to each well, and cpm per well determined using a Wallac Microbeta counter.

Binder	IC50
HSQGTFTSDYARYLDARRAREFIKWLVRGRGK(Palmitoyl) [G182]	220 nM
HSQGTFTSDYSKYLDSRRAQDFVQWLVKGR-NH2 [G1]	6.6 nM
HSQGTFTSDYAKYLDARRAKEFIAWLVKGRG [G51]	154 nM
HSQGTFTSDYAKYLDARRAKEFIAWLVKGRC [G77]	61.1 nM
HSQGTFTSDYARYLDARRAREFIAWLVKGRG [G84]	11.7 nM
HSQGTFTSDYAKYLDAKKAKEFIAWLVKGRG [G58]	164 nM
HSQGTFTSDYAKYLDARRAKEFIAWLVCGRG [G74]	21.7 nM
HSQGTFTSDYAKYLDARRAKEFIAWLVKGCG [G76]	59.1 nM
HSQGTFTSDYARYLDAKKAKEFIAWLVKGRG [G59]	97.5 nM
HSQGTFTSDYAKYLDARRAKEFIAWLVKGRK(Palmitoyl) [G88]	350 nM
HSQGTFTSDYARYLDARRAK(Palmitoyl)EFIKWLVRGRG (not fully specified; printed as HSQGTFTSDYARYLDARRAK(FA)EFIKWLVRGRG) [G183]	663 nM
HSQGTFTSDYARYLDARRAREFIKWLVRGRC(PEG43kD) [G4185]	547 nM
HSQGTFTSDYARYLDARRAREFIKWLVRGRC [G185]	48 nM
HSQGTFTSDYAKYLDARRAKEFIAWLVKCRG [G75]	54 nM
HSQGTFTSDYARYLDARRAREFIKWLVRGRC(PEG22kD) [G2185]	347 nM
HSQGTFTSDYAKYLDAAKAKEFIAWLVKGRG [G60]	682 nM
HSQGTFTSDYARYLDARRAREFIK(Palmitoyl)WLVRGRG [G90]	726 nM
HSQGTFTSDYAKYLDARRACEFIAWLVKGRG [G71]	25.6 nM
HSQGTFTSDYAKYLDARRAKEFIAWLVKGRC(PEG22kD) [G277]	65.5 nM
HSQGTFTSDYARYLDAAKAKEFIAWLVKGRG [G61]	232 nM
HSQGTFTSDYARYLDARRAKEFIAWLVRGRG [G82]	33.6 nM
HSQGTFTSDYARYLDARRAREFIKWLVRGRG [G83]	28.6 nM
HSQGTFTSDYSKYLEGQAAKEFIAWLVKGR-NH2 [G5]	243 nM
